Among the data in paper PMC8980021 are Kd values, retold here.

Where only a bound is given, the exact number is not on record here.

What is called Kd is a measure of binding affinity in units of concentration. The low end stands for a tighter complex, the high end for a looser complex.

Assay [1] addresses wild type human CD80 extracellular domain Fc fusion (WT CD80 ECD-Fc) (human) (UniProt P33681). Put plainly: SPR; Biacore 3000, CM5 chip with goat anti-human IgG capture antibody; ALPN-202 (120 RU) or WT CD80 ECD-Fc (160 RU) captured; monomeric human CD28, CTLA-4, PD-L1 as analytes; 240 s association, 600 s dissociation, 30 uL/min; global 1:1 fit; for the weak interactions a minimal KD with theoretical Rmax fixed. On the technique in general: In SPR one partner is held on a chip, and binding of the other changes the refractive index at the surface.

For assay [2], the target named is ALPN-202 (davoceticept), variant CD80 IgV domain Fc fusion (human) (UniProt P33681). The assay is described as above.

Turning to “recombinant monomeric human PD-L1 (from UniProt Q9NZQ7 19-238) (ligand)”, the Kd in assay [1] is > 37 µM. In the case of “recombinant monomeric human CD28 (from UniProt P10747 19-152) (receptor)”, the Kd in assay [1] is > 2.6 µM; in assay [2], 9.9 nM.
